Experimental data as given in paper PMC6733452.

B1: unnamed (parent)
chain 1: MFGLGHNSKEISMSHIGTKFILAEKFTFDPLSNTLIDKEDSEEIIRLGSNESRILWLLAQRPNEVISRNDLHDFVWREQGFEVDDSSLTQAISTLRKMLKDSTKSPQYVKTVPKRGYQLIARVETVEEEMARESEAAHDISQPESVNEYAESSSVPSSATVVNTPQPANVVTNKSAPNLGNRLLILIAVLLPLAVLLLTNPSQTSFKPLTVVDGVAVNMPNNHPDLSNWLPSIELCVKKYNEKHTGGLKPIEVIATGGQNNQLTLNYIHSPEVSGENITLRIVANPNDAIKVCE
chain 2: MGYVRVIYQFPDNLWWNECTNQVYYAQDPMKPERLIGTPSIIQTKLLKILCEYHPAPCPNDQIIKALWPHGFISSESLTQAIKRTRDFLNDEHKTLIENVKLQGYRINIIQVIVSENVVDEADCSQKKSVKERIKIEWGKINVVPYLVFSALYVALLPVIWWSYGQWYQHELAGITHDLRDLARLPGITIQKLSEQKLTFAIDQHQCSVNYEQKTLECTKN

Variants of: B1
Conditions: with partner chain of the complex shown; parent: 100; read off a plot

Point of comparison: chain 1 S102A T103A Q107A V112A, percent of parent (% capture relative to wild-type ToxR) 63. Against it:
- chain 1 K114A — higher, 110
- chain 1 S102A — higher, 84
- chain 1 I120A — higher, 90
- chain 1 Q107A — higher, 92
